Data published in patent publication US20230220042A1 (SHANGHAI JIAO TONG UNIVERSITY SCHOOL OF MEDICINE, published 2023).
Positions count from the first letter of the chain named. Numbers in names are those of the source.

T1: FcγRIIA^131H (human, UniProt P12318 34-217, biotin-labeled)
T1 construct: extracellular domain; Bought protein; also called RIIAH
T1 sequence (looked up): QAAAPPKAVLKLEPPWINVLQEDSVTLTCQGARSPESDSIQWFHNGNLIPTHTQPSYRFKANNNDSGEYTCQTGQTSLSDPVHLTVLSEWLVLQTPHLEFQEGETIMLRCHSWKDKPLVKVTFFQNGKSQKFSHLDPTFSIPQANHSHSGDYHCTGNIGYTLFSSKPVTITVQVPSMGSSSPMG

T2: FcγRIIA^131R (human, UniProt P12318 34-217, biotin-labeled)
T2 construct: extracellular domain; Bought protein; also called RIIAR
T2 sequence (looked up): T1 sequence (looked up) with H134R

T3: FcγRIIB (human, UniProt P31994 43-217, biotin-labeled)
T3 construct: extracellular domain; Bought protein; also called CD32b
T3 sequence (looked up): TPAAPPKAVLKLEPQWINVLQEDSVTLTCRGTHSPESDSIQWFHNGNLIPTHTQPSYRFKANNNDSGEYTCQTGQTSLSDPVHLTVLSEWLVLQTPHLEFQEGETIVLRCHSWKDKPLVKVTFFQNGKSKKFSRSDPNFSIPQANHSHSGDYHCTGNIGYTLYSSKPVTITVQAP

T4: Biotin-FcγRIIB (human, UniProt P31994 43-217, limits assumed, biotin label)
T4 construct: Soluble labelled protein used to stain and sort the display cells; also called human FcγRIIB; CD32b
T4 sequence (looked up): T3 sequence (looked up)

B1: IgG2 N297A (antibody, name in EU numbering)
heavy: QVQLQESGPGLVKPSGTLSLTCAVSGGSISSSIWWSWVRQPPGKGLEWIGEIHHSGNTNCNPSLKSRVTISIDKSKNQFSLKLTSVTAADTAVYYCARAGTGTTLDYWGQGTLVTVSSASTKGPSVFPLAPCSRSTSESTAALGCLVKDYFPEPVTVSWNSGALTSGVHTFPAVLQSSGLYSLSSVVTVPSSNFGTQTYTCNVDHKPSNTKVDKTVERKCCVECPPCPAPPVAGPSVFLFPPKPKDTLMISRTPEVTCVVVDVSHEDPEVQFNWYVDGVEVHNAKTKPREEQFASTFRVVSVLTVVHQDWLNGKEYKCKVSNKGLPAPIEKTISKTKGQPREPQVYTLPPSREEMTKNQVSLTCLVKGFYPSDIAVEWESNGQPENNYKTTPPMLDSDGSFFLYSKLTVDKSRWQQGNVFSCSVMHEALHNHYTQKSLSLSPGK
light: EIVLTQSPGTLSLSPGERATLSCRASQSVSGDYLAWYQQKLGQAPRLLIYGASIRATGIPDRFSGSGSGTDFTLTISKLEPEDFAVYYCQQYGSSPLTFGGGTKVEIKRTVAAPSVFIFPPSDEQLKSGTASVVCLLNNFYPREAKVQWKVDNALQSGNSQESVTEQDSKDSTYSLSSTLTLSKADYEKHKVYACEVTHQGLSSPVTKSFNRGEC
notes: Entries include an unstated signal peptide
B2: anti-human OX40 IgG2 antibody Mut_5 (A235W/V266L/S298L/L328W) (antibody)
heavy: B1 heavy with A233W, V263L, A294N, S295L, L325W
light: B1 light
notes: Substitutions in Eu numbering; entries include an unstated signal peptide
B3: anti-human OX40 IgG2 antibody Mut_3 (S267V/S298L/L328W) (antibody, name in EU numbering)
heavy: B1 heavy with S264V, A294N, S295L, L325W
light: B1 light
notes: as for B2
B4: anti-human OX40 IgG2 antibody Mut_2 (H268D/S298L/L328W) (antibody, name in EU numbering)
heavy: B1 heavy with H265D, A294N, S295L, L325W
light: B1 light
notes: as for B2
B5: anti-human OX40 IgG2 antibody Mut_4 (V234M/S267E/S298L/L328W) (antibody)
heavy: B1 heavy with V232M, S264E, A294N, S295L, L325W
light: B1 light
notes: as for B2
B6: anti-human OX40 IgG2 antibody Mut_1 (L328W) (antibody, name in EU numbering)
heavy: B1 heavy with A294N, L325W
light: B1 light
notes: as for B2
B7: human IgG2 anti-mouse CD40 surface displayed antibody, V266L/L328W (antibody, name in EU numbering)
light chain (with the P2A rest): DTVLTQSPALAVSPGERVTISCRASDSVSTLMHWYQQKPGQQPKLLIYLASHLESGVPARFSGSGSGTDFTLTIDPVEADDTATYYCQQSWNDPWTFGGGTKLELKRTVAAPSVFIFPPSDEQLKSGTASVVCLLNNFYPREAKVQWKVDNALQSGNSQESVTEQDSKDSTYSLSSTLTLSKADYEKHKVYACEVTHQGLSSPVTKSFNRGECGSGATNFSLLKQAGDVEENPG
heavy chain: EVQLVESDGGLVQPGRSLKLPCAASGFTFSDYYMAWVRQAPTKGLEWVASISYDGSSTYYRDSVKGRFTISRDNAKSTLYLQMDSLRSEDTATYYCGRHSSYFDYWGQGVMVTVSSASTKGPSVFPLAPCSRSTSESTAALGCLVKDYFPEPVTVSWNSGALTSGVHTFPAVLQSSGLYSLSSVVTVPSSNFGTQTYTCNVDHKPSNTKVDKTVERKCCVECPPCPAPPVAGPSVFLFPPKPKDTLMISRTPEVTCVVVDLSHEDPEVQFNWYVDGVEVHNAKTKPREEQFNSTFRVVSVLTVVHQDWLNGKEYKCKVSNKGWPAPIEKTISKTKGQPREPQVYTLPPSREEMTKNQVSLTCLVKGFYPSDIAVEWESNGQPENNYKTTPPMLDSDGSFFLYSKLTVDKSRWQQGNVFSCSVMHEALHNHYTQKSLSLSPGKLEPPPSTVSNMATVAVLVVLGAAIVTGAVVAFVMKMRRRNTGGKGGDYALAPGSQTSDLSLPDCKVMVHDPHSLA
notes: As m1 with the Fc mutations
B8: human IgG2 anti-mouse CD40 surface displayed antibody, V266L/S298L/L328W (antibody, name in EU numbering)
light chain (with the P2A rest): B7 light chain (with the P2A rest)
heavy chain: B7 heavy chain with S293L
notes: As m1 with the Fc mutations

Molecular target: T5, FcγRI (human, UniProt P12314 16-292, biotin-labeled)
T5 construct: extracellular domain; Bought protein; also called CD64
T5 sequence (P12314 16-292): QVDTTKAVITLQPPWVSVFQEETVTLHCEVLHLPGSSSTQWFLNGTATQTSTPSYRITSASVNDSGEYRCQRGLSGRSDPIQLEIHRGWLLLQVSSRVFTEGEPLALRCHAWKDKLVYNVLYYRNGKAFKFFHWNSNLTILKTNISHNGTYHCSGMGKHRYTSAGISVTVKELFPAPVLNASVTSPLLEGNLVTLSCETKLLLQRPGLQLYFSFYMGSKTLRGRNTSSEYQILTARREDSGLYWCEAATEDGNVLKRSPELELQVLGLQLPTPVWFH
Assay: ELISA, coated antibody, biotin-FcγR;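 for Absorbance value: antibody coated at 2 µg/mL at 100 µL per well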
Description: (§1) One hundred μl (2 μg/mL) of antibody or mutant thereof were added to the enzyme-linked plate to be coated overnight, then the supernatant was discarded. The plate was blocked with PBS containing 1% BSA for 2 hours, and washed with PBST (PBS containing 0.05% Tween 20). Biotin-labeled FcγR extracellular domain protein (Beijing Sino Biological Co., Ltd) of appropriate concentration was added and incubated at room temperature for 1 hour, then the supernatant was discarded and the plate was washed with PBST. The Biotin-labeled protein was detected by incubating with Streptavidin-HRP (BD BioSciences) at room temperature for 1 hour. The supernatant was removed, and the color-developing solution was added for color development for 20-40 minutes to determine the absorbance of 650 nm (A650).
(§2) Anti-human OX40 antibodies containing these new Fc mutation combinations are expressed and the binding property of the mutant antibody to FcγR are analyzed by Enzyme-linked immunosorbent assay (ELISA).

Row | Absorbance value [A650] | Relative binding affinity RI/G1 [ratio] | Binder
1 | 0.08 | 0.03 | B1
2 | 0.38 | 0.14 | B2
3 | 0.18 | 0.07 | B3
4 | 0.14 | 0.05 | B4
5 | 0.25 | 0.1 | B5
6 | 0.17 | 0.06 | B6

Molecular target: T1, FcγRIIA^131H
Assay: ELISA, coated antibody, biotin-FcγR;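 for Absorbance value: antibody coated at 2 µg/mL at 100 µL per well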
Description: as §1, §2

Row | Absorbance value [A650] | Relative binding affinity RIIAH/G1 [ratio] | Binder
7 | 0.04 | 0.08 | B1
8 | 0.46 | 0.81 | B2
9 | 0.34 | 0.6 | B3
10 | 0.32 | 0.56 | B4
11 | 0.48 | 0.84 | B5
12 | 0.35 | 0.62 | B6

Molecular target: T2, FcγRIIA^131R
Assay: ELISA, coated antibody, biotin-FcγR;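 for Absorbance value: antibody coated at 2 µg/mL at 100 µL per well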
Description: as §1, §2

Row | Absorbance value [A650] | Relative binding affinity RIIAR/G1 [ratio] | Binder
13 | 0.46 | 1.77 | B2
14 | 0.23 | 0.87 | B3
15 | 0.29 | 1.09 | B4
16 | 1.44 | 5.51 | B5
17 | 0.22 | 0.83 | B6

Molecular target: T3, FcγRIIB
Assay: ELISA, coated antibody, biotin-FcγR;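 for Absorbance value: antibody coated at 2 µg/mL at 100 µL per well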
Description: as §1, §2

Row | Absorbance value [A650] | Increased factor of RIIB binding compared with wild-type IgG2 [fold] | Relative binding affinity RIIB/G1 [ratio] | Binder
18 | 0.07 | 0.93 | 0.09 | B1
19 | 1.18 | 15.7 | 1.56 | B2
20 | 0.94 | 12.6 | 1.25 | B3
21 | 1 | 13.4 | 1.33 | B4
22 | 1.92 | 25.6 | 2.54 | B5
23 | 0.64 | 8.51 | 0.85 | B6

Molecular target: T6, FcγRIIIA^158F (human, UniProt P08637 17-208, biotin-labeled)
T6 construct: extracellular domain; Bought protein; also called RIIIAF
T6 sequence (P08637 17-208): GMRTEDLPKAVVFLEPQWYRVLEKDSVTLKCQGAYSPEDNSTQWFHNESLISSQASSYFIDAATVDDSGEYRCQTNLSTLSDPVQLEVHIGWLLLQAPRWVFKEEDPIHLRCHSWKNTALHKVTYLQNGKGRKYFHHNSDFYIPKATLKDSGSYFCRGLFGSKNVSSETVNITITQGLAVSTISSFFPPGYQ
Assay: ELISA, coated antibody, biotin-FcγR;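 for Absorbance value: antibody coated at 2 µg/mL at 100 µL per well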
Description: as §1, §2

Row | Absorbance value [A650] | Relative binding affinity RIIIAF/G1 [ratio] | Binder
24 | 0.06 | 0.31 | B2
25 | 0.08 | 0.4 | B3
26 | 0.07 | 0.38 | B4
27 | 0.06 | 0.32 | B5
28 | 0.07 | 0.38 | B6

Molecular target: T7, FcγRIIIA^158V (human, UniProt P08637 17-208, biotin-labeled)
T7 construct: extracellular domain; Bought protein; also called RIIIAV; CD16a 158V
T7 sequence (P08637 17-208 F176V): as the sequence (P08637 17-208) above, with F160V counted along it
Assay: ELISA, coated antibody, biotin-FcγR;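 for Absorbance value: antibody coated at 2 µg/mL at 100 µL per well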
Description: as §1, §2

Row | Absorbance value [A650] | Relative binding affinity RIIIAV/G1 [ratio] | Binder
29 | 0.06 | 0.06 | B1
30 | 0.06 | 0.07 | B2
31 | 0.07 | 0.08 | B3
32 | 0.06 | 0.06 | B4
33 | 0.05 | 0.06 | B5
34 | 0.09 | 0.09 | B6

Molecular target: T3, FcγRIIB
Assay: ELISA; relative affinity to FcγRIIB over that to FcγRIIA131R
Description: as §1, §2

Row | RIIB/RIIAR [ratio] | Binder
35 | 0.57 | B1
36 | 0.88 | B2
37 | 1.44 | B3
38 | 1.21 | B4
39 | 0.46 | B5
40 | 1.02 | B6

Molecular target: T4, Biotin-FcγRIIB
Assay: NGS of 3T3 display library Cmix flow-sorted for FcγRIIB binding

Row | enrichment factor, percentage after 1st sorting/percentage before sorting [ratio] | enrichment factor, percentage after 2nd sorting/percentage after 1st sorting [ratio] | enrichment factor, percentage after 3rd sorting/percentage after 2nd sorting [ratio] | enrichment factor, percentage after 3rd sorting/percentage before sorting [ratio] | increased factor, mutant enrichment factor/wild-type enrichment factor [ratio] | percentage after 1st sorting [%] | percentage after 2nd sorting [%] | percentage after 3rd sorting [%] | percentage before sorting [%] | Binder
41 | 4.71 | 53.3 | 5.53 | 1390 | 3700 | 0 | 0.22 | 1.2 | 0 | B7
42 | 21.1 | 64.8 | 6.03 | 8230 | 21900 | 0.06 | 4.14 | 25 | 0 | B8
